Measurements as given in PMC12636033, “Chemical Engineering of Transcription Factors Uncovered Cell-Permeable μMax Modulators”.

B1: dBr_Jan07_04854 (dsDNA)
DNA 1: CTGGGTTGGCCCTGCATTGGATACCTTTGAGCTCTCGTCTGTGTTCCGTTGTCCGTGCTG
DNA 2: CAGCACGGACAACGGAACACAGACGAGAGCTCAAAGGTATCCAATGCAGGGCCAACCCAG
B2: dBr_Jan07_41703 (dsDNA)
DNA 1: CATTCATGTTGAGATAACACGTGGTTGGGCGTTAATGTCTGTGTTCCGTTGTCCGTGCTG
DNA 2: CAGCACGGACAACGGAACACAGACATTAACGCCCAACCACGTGTTATCTCAACATGAATG
B3: dBr_Jan07_22655 (dsDNA)
DNA 1: GCCCACCCACCGAAATCGTCAATAGGCCTCACAGAAGTCTGTGTTCCGTTGTCCGTGCTG
DNA 2: CAGCACGGACAACGGAACACAGACTTCTGTGAGGCCTATTGACGATTTCGGTGGGTGGGC
B4: dBr_Jan07_21945 (dsDNA)
DNA 1: GCAGGGGTGTAGGACAACTCGGCGTCAGTGGGTAGTGTCTGTGTTCCGTTGTCCGTGCTG
DNA 2: CAGCACGGACAACGGAACACAGACACTACCCACTGACGCCGAGTTGTCCTACACCCCTGC
B5: dBr_Jan07_16045 (dsDNA)
DNA 1: TACATATTGCCCTTTGGGTGAGTCACTCATTTTGGGGTCTGTGTTCCGTTGTCCGTGCTG
DNA 2: CAGCACGGACAACGGAACACAGACCCCAAAATGAGTGACTCACCCAAAGGGCAATATGTA
B6: dBr_Jan07_19002 (dsDNA)
DNA 1: CTATGCCGGGATAGTTCACCATACGGTCACAGCTTTGTCTGTGTTCCGTTGTCCGTGCTG
DNA 2: CAGCACGGACAACGGAACACAGACAAAGCTGTGACCGTATGGTGAACTATCCCGGCATAG
B7: dBr_Jan07_13143 (dsDNA)
DNA 1: AGCTGTTGGTGCATCCTATGTCGAAGACTGGCGGCGGTCTGTGTTCCGTTGTCCGTGCTG
DNA 2: CAGCACGGACAACGGAACACAGACCGCCGCCAGTCTTCGACATAGGATGCACCAACAGCT
B8: dBr_Jan07_10250 (dsDNA)
DNA 1: CCGCTCCACGAGCCACGACCGAATACCGTACACGTGGTCTGTGTTCCGTTGTCCGTGCTG
DNA 2: CAGCACGGACAACGGAACACAGACCACGTGTACGGTATTCGGTCGTGGCTCGTGGAGCGG
B9: dBr_Jan07_30747 (dsDNA)
DNA 1: GGTACTACGATATAGGGATTACGCACCGCAAGGAGCGTCTGTGTTCCGTTGTCCGTGCTG
DNA 2: CAGCACGGACAACGGAACACAGACGCTCCTTGCGGTGCGTAATCCCTATATCGTAGTACC
B10: dBr_Jan07_40846 (dsDNA)
DNA 1: CCAGATCAACGCTTGCTAAATAAACGCAGCAAACTGGTCTGTGTTCCGTTGTCCGTGCTG
DNA 2: CAGCACGGACAACGGAACACAGACCAGTTTGCTGCGTTTATTTAGCAAGCGTTGATCTGG
B11: dBr_Jan07_08887 (dsDNA)
DNA 1: ATAGCCGCGTGGCATATGGTCCGGCGACCCCCTCTCGTCTGTGTTCCGTTGTCCGTGCTG
DNA 2: CAGCACGGACAACGGAACACAGACGAGAGGGGGTCGCCGGACCATATGCCACGCGGCTAT
B12: dBr_Jan07_06986 (dsDNA)
DNA 1: CAATAGACGTTGCAATTTGGCCTGACAGCTACGGAAGTCTGTGTTCCGTTGTCCGTGCTG
DNA 2: CAGCACGGACAACGGAACACAGACTTCCGTAGCTGTCAGGCCAAATTGCAACGTCTATTG
B13: dBr_Jan07_03085 (dsDNA)
DNA 1: TGTACGGGAGACCTTGCGGCGCCTACGAGCAACAACGTCTGTGTTCCGTTGTCCGTGCTG
DNA 2: CAGCACGGACAACGGAACACAGACGTTGTTGCTCGTAGGCGCCGCAAGGTCTCCCGTACA
B14: dBr_Jan07_16988 (dsDNA)
DNA 1: CCACCTAGGGGATACTCGCAAGGTCGGGAAACCACCGTCTGTGTTCCGTTGTCCGTGCTG
DNA 2: CAGCACGGACAACGGAACACAGACGGTGGTTTCCCGACCTTGCGAGTATCCCCTAGGTGG
B15: dBr_Jan07_06649 (dsDNA)
DNA 1: TAAAGGTCACCAATAGTCATTGCAGACTGGGACAATGTCTGTGTTCCGTTGTCCGTGCTG
DNA 2: CAGCACGGACAACGGAACACAGACATTGTCCCAGTCTGCAATGACTATTGGTGACCTTTA
B16: dBr_Jan07_00680 (dsDNA)
DNA 1: ACACCAGCGCGTCAGGAGTTGTGTGAACCCACACCCGTCTGTGTTCCGTTGTCCGTGCTG
DNA 2: CAGCACGGACAACGGAACACAGACGGGTGTGGGTTCACACAACTCCTGACGCGCTGGTGT
B17: dBr_Jan07_08177 (dsDNA)
DNA 1: GGAGGTCTAACTGGGAACGGCAATGCGCCCATATTTGTCTGTGTTCCGTTGTCCGTGCTG
DNA 2: CAGCACGGACAACGGAACACAGACAAATATGGGCGCATTGCCGTTCCCAGTTAGACCTCC
B18: dBr_Jan07_11873 (dsDNA)
DNA 1: CCAGAGTTCGTAGGCAAAAACCCGCGACGGTATGCCGTCTGTGTTCCGTTGTCCGTGCTG
DNA 2: CAGCACGGACAACGGAACACAGACGGCATACCGTCGCGGGTTTTTGCCTACGAACTCTGG
B19: dBr_Jan07_28572 (dsDNA)
DNA 1: CGCTTTGCTCAGACGTCTGACTCGGACTATGAGAGGGTCTGTGTTCCGTTGTCCGTGCTG
DNA 2: CAGCACGGACAACGGAACACAGACCCTCTCATAGTCCGAGTCAGACGTCTGAGCAAAGCG
B20: dBr_Jan07_20880 (dsDNA)
DNA 1: GTCGGTTAACCTACTGTAACGTCGCTTTCGGTGTGTGTCTGTGTTCCGTTGTCCGTGCTG
DNA 2: CAGCACGGACAACGGAACACAGACACACACCGAAAGCGACGTTACAGTAGGTTAACCGAC
B21: dBr_Jan07_17054 (dsDNA)
DNA 1: GTTCTCCCTTGATTCAAGTATAACAAGATACCCATCGTCTGTGTTCCGTTGTCCGTGCTG
DNA 2: CAGCACGGACAACGGAACACAGACGATGGGTATCTTGTTATACTTGAATCAAGGGAGAAC
B22: dBr_Jan07_04404 (dsDNA)
DNA 1: ATCCTCTTGAAACACTACAAGTTTCGTTAAAAAAAGGTCTGTGTTCCGTTGTCCGTGCTG
DNA 2: CAGCACGGACAACGGAACACAGACCTTTTTTTAACGAAACTTGTAGTGTTTCAAGAGGAT
B23: dBr_Jan07_34487 (dsDNA)
DNA 1: AACAGCCCACCCCTTATCAACGCGGCGCTTTCAGGCGTCTGTGTTCCGTTGTCCGTGCTG
DNA 2: CAGCACGGACAACGGAACACAGACGCCTGAAAGCGCCGCGTTGATAAGGGGTGGGCTGTT
B24: dBr_Jan07_08379 (dsDNA)
DNA 1: CGCGGAAGCCTCTACGCTTGATTGTATCCAACACCCGTCTGTGTTCCGTTGTCCGTGCTG
DNA 2: CAGCACGGACAACGGAACACAGACGGGTGTTGGATACAATCAAGCGTAGAGGCTTCCGCG
B25: dBr_Jan07_28323 (dsDNA)
DNA 1: GGCTCAAGACAGATTGCAGCTTTGACAACCGAATTCGTCTGTGTTCCGTTGTCCGTGCTG
DNA 2: CAGCACGGACAACGGAACACAGACGAATTCGGTTGTCAAAGCTGCAATCTGTCTTGAGCC
B26: dBr_Jan07_40185 (dsDNA)
DNA 1: AGAATCAAGGTGAGCGAGCAAGGCTTAAAATCCCGCGTCTGTGTTCCGTTGTCCGTGCTG
DNA 2: CAGCACGGACAACGGAACACAGACGCGGGATTTTAAGCCTTGCTCGCTCACCTTGATTCT
B27: dBr_Jan07_22296 (dsDNA)
DNA 1: TGAAGTGATTGTATGACCTTCTCCACTCTGCCGCCAGTCTGTGTTCCGTTGTCCGTGCTG
DNA 2: CAGCACGGACAACGGAACACAGACTGGCGGCAGAGTGGAGAAGGTCATACAATCACTTCA
B28: dBr_Jan07_30748 (dsDNA)
DNA 1: CCGCAAGGAGCGCACTAGCATCTCCTCTCTTGGGCCGTCTGTGTTCCGTTGTCCGTGCTG
DNA 2: CAGCACGGACAACGGAACACAGACGGCCCAAGAGAGGAGATGCTAGTGCGCTCCTTGCGG
B29: dBr_Jan07_41473 (dsDNA)
DNA 1: TACTCGAAGCGTAAAAAAGACCGGGTAGGAAGCCAAGTCTGTGTTCCGTTGTCCGTGCTG
DNA 2: CAGCACGGACAACGGAACACAGACTTGGCTTCCTACCCGGTCTTTTTTACGCTTCGAGTA
B30: dBr_Jan07_23467 (dsDNA)
DNA 1: ATTGGGGATGACAAGAGCTCTTCACAAAGAGGCCTTGTCTGTGTTCCGTTGTCCGTGCTG
DNA 2: CAGCACGGACAACGGAACACAGACAAGGCCTCTTTGTGAAGAGCTCTTGTCATCCCCAAT
B31: dBr_Jan07_34312 (dsDNA)
DNA 1: TTCAGACTGGCGCATGGTGCCCTCTGAACCCTGAATGTCTGTGTTCCGTTGTCCGTGCTG
DNA 2: CAGCACGGACAACGGAACACAGACATTCAGGGTTCAGAGGGCACCATGCGCCAGTCTGAA
B32: dBr_Jan07_19753 (dsDNA)
DNA 1: ACACGTGTATGTAACATGCGAGCACTTCGTGCGCCTGTCTGTGTTCCGTTGTCCGTGCTG
DNA 2: CAGCACGGACAACGGAACACAGACAGGCGCACGAAGTGCTCGCATGTTACATACACGTGT
B33: dBr_Jan07_39257 (dsDNA)
DNA 1: CAAACAGGCCGGTCTCTCGGTACAGTCACGTGTTCAGTCTGTGTTCCGTTGTCCGTGCTG
DNA 2: CAGCACGGACAACGGAACACAGACTGAACACGTGACTGTACCGAGAGACCGGCCTGTTTG

These binders were tested against WT Max (Homo sapiens, UniProt P61244-2 13-93, M65Nle, norleucine written as M; other non-natural residues written as X) (assay: PBM; 50-200 nM protein; PBS, 2% milk, BSA, salmon testes DNA, 0.02% Triton X-100). Conditions: chain copies: 2; label: surface-attached array probe.
WT Max, sequence (P61244 other isoform, or with tags, fused parts or gaps M65Nle): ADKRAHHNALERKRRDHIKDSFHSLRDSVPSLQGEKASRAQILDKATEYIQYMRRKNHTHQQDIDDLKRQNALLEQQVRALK
For B1, the binding signal was -0.33 robust z of log adjusted intensity (ours), mean of two arrays. With B2 the binding signal was 5.69 robust z of log adjusted intensity (ours), mean of two arrays. With B3 the binding signal was -0.54 robust z of log adjusted intensity (ours), mean of two arrays. With B4 the binding signal was -0.45 robust z of log adjusted intensity (ours), mean of two arrays. B5 was tested, and the binding signal was -0.17 robust z of log adjusted intensity (ours), mean of two arrays. For B6, the binding signal was -0.39 robust z of log adjusted intensity (ours), mean of two arrays. With B7 the binding signal was -0.67 robust z of log adjusted intensity (ours), mean of two arrays. B8 was tested, and the binding signal was 4.92 robust z of log adjusted intensity (ours), mean of two arrays. With B9 the binding signal was -0.4 robust z of log adjusted intensity (ours), mean of two arrays. With B10 the binding signal was -0.51 robust z of log adjusted intensity (ours), mean of two arrays. With B11 the binding signal was 7 robust z of log adjusted intensity (ours), mean of two arrays. With B12 the binding signal was -0.17 robust z of log adjusted intensity (ours), mean of two arrays. With B13 the binding signal was -0.59 robust z of log adjusted intensity (ours), mean of two arrays. In the case of B14, the binding signal is reported as -0.45 robust z of log adjusted intensity (ours), mean of two arrays. B15 was tested, and the binding signal was -0.27 robust z of log adjusted intensity (ours), mean of two arrays. For B16, the binding signal was -0.81 robust z of log adjusted intensity (ours), mean of two arrays. In the case of B17, the binding signal is reported as -0.41 robust z of log adjusted intensity (ours), mean of two arrays. B18 was tested, and the binding signal was -0.41 robust z of log adjusted intensity (ours), mean of two arrays. In the case of B19, the binding signal is reported as -0.41 robust z of log adjusted intensity (ours), mean of two arrays. With B20 the binding signal was -0.14 robust z of log adjusted intensity (ours), mean of two arrays. With B21 the binding signal was -0.28 robust z of log adjusted intensity (ours), mean of two arrays. For B22, the binding signal was -0.11 robust z of log adjusted intensity (ours), mean of two arrays. For B23, the binding signal was -0.28 robust z of log adjusted intensity (ours), mean of two arrays. With B24 the binding signal was -0.26 robust z of log adjusted intensity (ours), mean of two arrays. B25 was tested, and the binding signal was -0.41 robust z of log adjusted intensity (ours), mean of two arrays. With B26 the binding signal was -0.61 robust z of log adjusted intensity (ours), mean of two arrays. B27 was tested, and the binding signal was -0.32 robust z of log adjusted intensity (ours), mean of two arrays. For B28, the binding signal was -0.64 robust z of log adjusted intensity (ours), mean of two arrays. In the case of B29, the binding signal is reported as -0.29 robust z of log adjusted intensity (ours), mean of two arrays. B30 was tested, and the binding signal was -0.43 robust z of log adjusted intensity (ours), mean of two arrays. With B31 the binding signal was -0.02 robust z of log adjusted intensity (ours), mean of two arrays. With B32 the binding signal was 3.43 robust z of log adjusted intensity (ours), mean of two arrays. With B33 the binding signal was 4.93 robust z of log adjusted intensity (ours), mean of two arrays.
